Measurements: US20260041793A1, “VIRAL VECTOR” (University of Sheffield, priority 2022, published 2026)

B1: GGGCCCAGAAGUCCAAGUUAU UUCAAGAGA AUAACUUGGACUUCUGGGCCC (nucleic acid)
chain 1: GGGCCCAGAAGTCCAAGTTAT
chain 2: AUAACUUGGACUUCUGGGCCC
chain 3: GGGCCCAGAAGUCCAAGUUAUUUCAAGAGAAUAACUUGGACUUCUGGGCCC
modifications: expressed or natural sequence; chain 1: target site or template, no part of the molecule
notes: shRNA targeting SRSF1
B2: GGAAGAUCUCGAUCUCGAAGC UUCAAGAGA GCUUCGAGAUCGAGAUCUUCC (nucleic acid)
chain 1: GGAAGATCTCGATCTCGAAGC
chain 2: GCUUCGAGAUCGAGAUCUUCC
chain 3: GGAAGAUCUCGAUCUCGAAGCUUCAAGAGAGCUUCGAGAUCGAGAUCUUCC
modifications: expressed or natural sequence; chain 1: target site or template, no part of the molecule
notes: shRNA targeting SRSF1
B3: GCAGAGGAUCACCACGCUAUU UUCAAGAGA AAUAGCGUGGUGAUCCUCUGC (nucleic acid)
chain 1: GCAGAGGATCACCACGCTATT
chain 2: AAUAGCGUGGUGAUCCUCUGC
chain 3: GCAGAGGAUCACCACGCUAUUUUCAAGAGAAAUAGCGUGGUGAUCCUCUGC
modifications: expressed or natural sequence; chain 1: target site or template, no part of the molecule
notes: shRNA targeting SRSF1

What follows are molecules tested on SRSF1 (assay: Western immunoblotting of SRSF1 in human cells co-transfected with scAAV plasmids and C9ORF72-repeat reporter). Settings: co-transfected with sense or antisense C9ORF72-repeat reporter, FIG. 4.
Format: cell-based

With B1 as the molecule, how does the “depletion of SRSF1” value read?
The value was “efficient depletion of SRSF1”.

Which “depletion of SRSF1” value does the source give for B2 here?
The value was “efficient depletion of SRSF1”.

With B3 as the molecule, how does the “depletion of SRSF1” value read?
Its value is “efficient depletion of SRSF1”.
